The values that follow come from patent US20200181238A1.

In experiment [1] the target is ICAM-1 on tumor cells (HeLa, 8505C) (human) (UniProt P05362). Kind of experiment: cell-based or functional assay.
Experiment [2] has the same target. Kind of experiment: flow cytometry, 8505C cells, R6.5 antibody at 10 µg/ml; ICAM-1 negative 293T control reads 0%. Background: In flow cytometry, cells or beads pass a laser one at a time.
Experiment [3] has the same target. Kind of experiment: flow cytometry, HeLa cells, R6.5 antibody at 10 µg/ml; ICAM-1 negative 293T control reads 0%.
The target is the same in experiment [4]. As to the kind of experiment: estimated from titrated R65 antibody binding to HeLa cells.

ICAM-1 on tumor cells (HeLa, 8505C) (human), sequence (P05362 28-532): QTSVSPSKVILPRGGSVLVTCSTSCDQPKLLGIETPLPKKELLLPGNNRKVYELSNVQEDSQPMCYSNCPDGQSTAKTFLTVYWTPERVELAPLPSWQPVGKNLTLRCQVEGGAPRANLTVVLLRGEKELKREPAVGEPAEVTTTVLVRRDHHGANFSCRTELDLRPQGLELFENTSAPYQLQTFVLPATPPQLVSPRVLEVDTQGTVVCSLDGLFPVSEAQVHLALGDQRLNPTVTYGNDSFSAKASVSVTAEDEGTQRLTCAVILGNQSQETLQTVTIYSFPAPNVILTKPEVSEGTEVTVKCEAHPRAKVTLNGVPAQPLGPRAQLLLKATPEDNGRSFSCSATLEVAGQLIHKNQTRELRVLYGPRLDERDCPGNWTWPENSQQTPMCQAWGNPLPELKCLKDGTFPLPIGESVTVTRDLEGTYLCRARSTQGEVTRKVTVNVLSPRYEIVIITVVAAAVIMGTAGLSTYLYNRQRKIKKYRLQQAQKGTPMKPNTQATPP

Consider “R6.5-CAR (third generation anti-ICAM-1 chimeric antigen receptor on primary human T cells) (from UniProt P10747 153-220; Q07011 214-255; P20963 52-164) (scFv)”, for which, in experiment [1], the percent of 8505C cells viable after 24 hours with CAR T cells, E:T 2.5:1 (bioluminescence, normalized to non-transduced T cells) was 52% and the percent of HeLa cells viable after 24 hours with CAR T cells, E:T 2.5:1 (bioluminescence, normalized to non-transduced T cells) is 17%.

B1: murine monoclonal anti-human ICAM-1 antibody R6.5 (antibody, from another filing, V domains shown)
VH: QVQLQQSGPELVRPGVSVKISCKGSGYTFIDYAIHWVKESHAKSLEWIGVISAYSGDTNYNQKFKGKATMTVDKSSNTAYLELARLTSEDSAIYYCARGGWLLLSFDYWGQGTTLTVSS
VL: DVVMTQSPLSLPVSLGDQASISCRSSQSLVHSNGNNYLHWYLQKSGQAPKLLIYKVSNRFSGVPDRFSGSGSGTDFTLKISRVEAEDLGVYFCSQSTHVPLTFGGGTKLEIKR
As to B1, the % ICAM-1 positive cells in experiment [2] stood at 97%; in experiment [3], 100%. Besides, the dissociation constant (Kd) (commonly the concentration at which binding is half-saturated) in experiment [4] is 10 nM.
